Article PMC8939767 (Science Translational Medicine, 2022)
Where no end group is shown, it is not given here. The star is where a group is joined. Biotin = O=C1N[C@H]2[C@H](CS[C@H]2CCCCC(=O)*)N1

Columns and labels:
[1] = biological target: T1, HCoV-HKU1 stem peptide variant, 20-mer with 5 additional residues at the N-terminus (HCoV-HKU1 isolate N1 (AAT98580.1), UniProt Q5MQD0, biotin on the N-terminus); experiment: BLI; settings: both partners purified
T1 construct: also called 20-mer (brick red); source: synthetic peptide
T1 chain: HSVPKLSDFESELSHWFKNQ

[2] = biological target: T2, HCoV-HKU1 stem peptide variant, 20-mer with 5 additional residues at the C-terminus (HCoV-HKU1 isolate N1 (AAT98580.1), UniProt Q5MQD0, biotin on the N-terminus); experiment: BLI; settings: both partners purified
T2 construct: also called 20-mer (orange); source: synthetic peptide
T2 chain: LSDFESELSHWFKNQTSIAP

[3] = biological target: T3, HCoV-HKU1 25-residue S2 stem peptide (residues 1226-1250) (HCoV-HKU1 isolate N1 (AAT98580.1), UniProt Q5MQD0, biotin on the N-terminus); experiment: BLI; settings: both partners purified
T3 construct: also called 25-mer (red); 25-mer S2 peptide from HCoV-HKU1; source: synthetic peptide
T3 chain: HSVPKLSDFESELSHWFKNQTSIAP

[4] = biological target: T4, HCoV-HKU1 soluble spike ectodomain protein (HCoV-HKU1, isolate N1 by the GenBank …, UniProt Q5MQD0); experiment: BLI; settings: both partners purified
T4 construct: also called HCoV-HKU1 soluble spike protein; source: FreeStyle293-F, transfected, purified (Ni-NTA, SEC)

[5] = biological target: T5, HCoV-HKU1 spike protein, full length, expressed on 293T cells (HCoV-HKU1, isolate N1 by the GenBank …, UniProt Q5MQD0); experiment: flow cytometry on cells; settings: one partner purified
T5 construct: source: HEK293T, transfected, on the cell surface

[6] = biological target: T6, HCoV-HKU1 S2 95th 15-mer stem peptide (residues 1231-1245), biotinylated (HCoV-HKU1 isolate N1 (AAT98580.1), UniProt Q5MQD0); experiment: ELISA; […], mAb in 1% BSA/PBST, […]; settings: both partners purified
T6 construct: also called 95th 15-mer peptide; HCoV-HKU1 95th 15-mer stem peptide; source: synthetic peptide (A&A Labs, Synthetic Biomolecules)
T6 chain: Biotin-LSDFESELSHWFKNQ

[7] = biological target: T7, SARS-CoV-2 S2 stem-helix 25-mer peptide, N-terminal biotinylated (wild type) (SARS-CoV-2, UniProt P0DTC2, biotin on the N-terminus); experiment: BLI; […], Octet buffer (PBS plus 0.1% Tween-20), association 120 s, […]; settings: both partners purified
T7 construct: also called SARS-CoV-2 stem-helix peptide; SARS-CoV-2 stem peptide (25mer); source: synthetic peptide
T7 chain: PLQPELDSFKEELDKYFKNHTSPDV

[8] = biological target: T8, SARS-CoV-2 25-mer S2 stem peptide (as used for the crystal and for competition of neutralization) (SARS-CoV-2, UniProt P0DTC2); experiment: crystal structure; settings: both partners purified
T8 construct: also called SARS-CoV-2 S2 peptide; SARS-CoV-2 stem peptide; source: synthetic peptide
T8 chain: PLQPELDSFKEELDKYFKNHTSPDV

Measured: binding result

T5 sequence (Q5MQD0 13-1356): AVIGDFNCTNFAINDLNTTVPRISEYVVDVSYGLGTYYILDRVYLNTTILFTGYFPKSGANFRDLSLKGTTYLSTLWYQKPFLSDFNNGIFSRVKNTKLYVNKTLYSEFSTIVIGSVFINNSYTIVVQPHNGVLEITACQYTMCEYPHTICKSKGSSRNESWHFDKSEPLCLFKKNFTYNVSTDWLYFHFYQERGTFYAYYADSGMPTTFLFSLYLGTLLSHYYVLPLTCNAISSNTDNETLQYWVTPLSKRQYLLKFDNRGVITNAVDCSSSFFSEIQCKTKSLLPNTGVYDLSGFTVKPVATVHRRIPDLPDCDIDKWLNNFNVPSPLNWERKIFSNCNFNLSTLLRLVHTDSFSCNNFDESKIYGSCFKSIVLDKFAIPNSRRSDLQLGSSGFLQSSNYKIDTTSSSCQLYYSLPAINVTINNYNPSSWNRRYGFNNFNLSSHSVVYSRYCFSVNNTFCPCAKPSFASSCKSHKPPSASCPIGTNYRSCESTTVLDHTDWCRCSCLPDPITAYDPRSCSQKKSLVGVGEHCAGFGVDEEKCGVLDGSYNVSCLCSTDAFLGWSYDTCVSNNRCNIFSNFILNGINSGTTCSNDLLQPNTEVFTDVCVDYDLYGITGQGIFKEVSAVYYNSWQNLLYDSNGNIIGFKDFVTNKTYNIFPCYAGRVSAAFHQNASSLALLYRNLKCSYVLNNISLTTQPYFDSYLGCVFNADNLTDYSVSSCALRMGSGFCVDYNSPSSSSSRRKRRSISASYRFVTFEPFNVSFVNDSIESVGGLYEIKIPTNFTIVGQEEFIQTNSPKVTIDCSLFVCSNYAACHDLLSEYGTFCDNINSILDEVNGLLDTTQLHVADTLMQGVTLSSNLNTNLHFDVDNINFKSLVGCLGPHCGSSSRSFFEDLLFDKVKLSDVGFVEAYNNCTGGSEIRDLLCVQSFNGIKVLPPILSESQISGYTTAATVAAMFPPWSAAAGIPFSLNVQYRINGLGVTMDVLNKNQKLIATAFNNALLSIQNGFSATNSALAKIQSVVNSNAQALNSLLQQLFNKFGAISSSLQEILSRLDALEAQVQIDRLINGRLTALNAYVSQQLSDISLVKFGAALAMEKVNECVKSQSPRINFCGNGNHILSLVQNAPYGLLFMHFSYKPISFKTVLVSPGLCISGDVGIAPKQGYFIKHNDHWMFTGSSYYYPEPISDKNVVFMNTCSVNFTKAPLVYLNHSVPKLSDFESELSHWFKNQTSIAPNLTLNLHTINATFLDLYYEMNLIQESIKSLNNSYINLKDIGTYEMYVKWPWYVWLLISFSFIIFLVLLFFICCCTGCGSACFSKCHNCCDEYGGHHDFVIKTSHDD

B1: CC40.8 broadly neutralizing antibody (IgG) (antibody, V domains shown)
VH: EVQLLESGGGLVQPGGSLRLSCAASGFTFSSYVMTWARQAPGKGLEWVSAISGTGYTYYADSVKGRFTVSRDNSKNTLFLQMSSLRAEDTAVYYCAITMAPVVWGQGTTVTVSS
VL: SYELTQPPSVSVSPGQTARITCSGDALPKRYAYWYQQKSGQAPILVIYEDKKRPSGIPERLSGSKSGTVATLTISGAQVEDEADYYCYSTDSSGNHAVFGGGTQLTVL
notes: also called CC40.8 bnAb; CC40.8 mAb
not listed: [8]
binds: all other assays above

B2: CC40.8 Fab (Fab, V domains shown)
VH: EVQLLESGGGLVQPGGSLRLSCAASGFTFSSYVMTWARQAPGKGLEWVSAISGTGYTYYADSVKGRFTVSRDNSKNTLFLQMSSLRAEDTAVYYCAITMAPVVWGQGTTVTVSS
VL: SYELTQPPSVSVSPGQTARITCSGDALPKRYAYWYQQKSGQAPILVIYEDKKRPSGIPERLSGSKSGTVATLTISGAQVEDEADYYCYSTDSSGNHAVFGGGTQLTVL
notes: also called CC40.8 antibody Fab fragment
binds: [8]
